# In patent US20100150948A1, “MATERIALS AND METHODS FOR IMPROVED IMMUNOGLYCOPROTEINS” (TRUBION PHARMACEUTICALS, INC., priority 2006, published 2010):
# B1: Kifu TRU-016: TRU-016 produced by CHO cells treated with 10 μM kifenunsine (antibody, chains of the INN, looked up, V domains shown)
# VH: EVQLVQSGAEVKKPGESLKISCKGSGYSFTGYNMNWVRQMPGKGLEWMGNIDPYYGGTTYNRKFKGQVTISADKSISTAYLQWSSLKASDTAMYYCARSVGPFDSWGQGTLVTVSS
# VL: EIVLTQSPATLSLSPGERATLSCRASENVYSYLAWYQQKPGQAPRLLIYFAKTLAEGIPARFSGSGSGTDFTLTISSLEPEDFAVYYCQHHSDNPWTFGQGTKVEIK
# modifications: altered glycosylation (kifunensine-treated CHO)
# notes: TRU-016 produced by CHO cells treated with 10 μM kifenunsine
# Test system: Ramos cells
# Test: Ramos tumor model in nude mice
# Assay type: in vivo
# Conditions: 200 μg i.v. on days 0, 2, 4, 6 and 8; Ramos cells s.c.
# Description: Nude mice are administered 5×10^6 Ramos cells subcutaneously on day 0 and injected intravenously with 200 μg control human IgG or TRU-016 test protein produced by CHO cells treated with 200 μM DMJ, 10 μM kifenunsine or 200 μM castanospermine on days 0, 2, 4, 6, and 8. Mice typically develop tumors within 6 days and die shortly thereafter. Tumors are measured three times weekly with digital calipers and LabCat software, and tumor volume is calculated as […]. Body weight is also determined once a week.
# Mice are sacrificed when the tumor reaches 1500 mm^3 in size (1200 mm^3 on Fridays). Mice are also sacrificed if ulceration of a tumor occurs, the tumor inhibits the mobility of animal, or if weight loss equals or exceeds 20%.
molecule,measurement,value
B1,Median Survival Time,10 days
